Assay results from the supplement of paper PMC5998384.

What was measured:
[1] = test system: HeLa Kyoto; test: solubility in G1/S (NP-40 vs SDS abundance) (log2 ratio); higher = more soluble; conditions: cell cycle stage: G1/S
[2] = test system: HeLa Kyoto; test: melting temperature (median over replicates), in situ; higher = more thermally stable
[3] = test system: HeLa Kyoto; test: solubility change mitosis vs G1/S (difference of NP-40 vs SDS log2 ratios) (log2 ratio difference); higher = more soluble in mitosis
[4] = test system: HeLa Kyoto; test: thermal stability score vs G1/S (z-score of summed log2 fold changes over temperatures); higher = more thermally stable than in G1/S
[5] = cell cycle stage: early G1 (4.5 h after nocodazole release)
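For melting temperature (median over replicates), in situ in this document: HeLa Kyoto cells synchronized by double thymidine or nocodazole block, proteins quantified by TMT10plex mass spectrometry, three independent biological replicates.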
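For solubility change mitosis vs G1/S (difference of NP-40 vs SDS log2 ratios) in this document: synchronized HeLa Kyoto cells (double thymidine block for G1/S, nocodazole release for mitosis), protein amounts in NP-40 versus SDS lysates quantified by mass spectrometry, three biological replicates.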
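For solubility in G1/S (NP-40 vs SDS abundance) in this document: HeLa Kyoto cells arrested at G1/S by double thymidine block, proteins quantified by TMT10plex mass spectrometry in mild NP-40 versus SDS extracts, three biological replicates.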
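For thermal stability score vs G1/S (z-score of summed log2 fold changes over temperatures) in this document: synchronized HeLa Kyoto cells, proteins quantified by TMT10plex mass spectrometry, three biological replicates, mitosis taken 0.5 h after nocodazole release, G1/S directly after double thymidine block.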

Sequence | solubility in G1/S (log2) [1] | melting temperature ([2]; cell cycle stage: G1/S) | melting temperature ([2]; cell cycle stage: mitosis) | solubility change mitosis (log2) [3] | thermal stability score [4, 5] | thermal stability score ([4]; cell cycle stage: mitosis)
MCGNTMSVPLLTDAATVSGAERETAAVIFLHGLGDTGHSWADALSTIRLPHVKYICPHAPRIPVTLNMKMVMPSWFDLMGLSPDAPEDEAGIKKAAENIKALIEHEMKNGIPANRIVLGGFSQGGALSLYTALTCPHPLAGIVALSCWLPLHRAFPQAANGSAKDLAILQCHGELDPMVPVRFGALTAEKLRSVVTPARVQFKTYPGVMHSSCPQEMAAVKEFLEKLLPPV [LYPLA2] | 0.543 | 53.3 °C | 53 °C | 0.185 | -1.02 | 0.00875
MCNTPTYCDLGKAAKDVFNKGYGFGMVKIDLKTKSCSGVEFSTSGHAYTDTGKASGNLETKYKVCNYGLTFTQKWNTDNTLGTEISWENKLAEGLKLTLDTIFVPNTGKKSGKLKASYKRDCFSVGSNVDIDFSGPTIYGWAVLAFEGWLAGYQMSFDTAKSKLSQNNFALGYKAADFQLHTHVNDGTEFGGSIYQKVNEKIETSINLAWTAGSNNTRFGIAAKYMLDCRTSLSAKVNNASLIGLGYTQTLRPGVKLTLSALIDGKNFSAGGHKVGLGFELEA [VDAC3] | -0.0264 | 61.6 °C | 59.9 °C | -0.0561 | -1.43 | -4.76
MDAAEVEFLAEKELVTIIPNFSLDKIYLIGGDLGPFNPGLPVEVPLWLAINLKQRQKCRLLPPEWMDVEKLEKMRDHERKEETFTPMPSPYYMELTKLLLNHASDNIPKADEIRTLVKDMWDTRIAKLRVSADSFVRQQEAHAKLDNLTLMEINTSGTFLTQALNHMYKLRTNLQPLESTQSQDF [GINS2] | 0.24 | 50.9 °C | 52.4 °C | 0.34 | -1.69 | -2.97
MDAPRASAAKPPTGRKMKARAPPPPGKAATLHVHSDQKPPHDGALGSQQNLVRMKEALRASTMDVTVVLPSGLEKRSVLNGSHAMMDLLVELCLQNHLNPSHHALEIRSSETQQPLSFKPNTLIGTLNVHTVFLKEKVPEEKVKPGPPKVPEKSVRLVVNYLRTQKAVVRVSPEVPLQNILPVICAKCEVSPEHVVLLRDNIAGEELELSKSLNELGIKELYAWDNRRETFRKSSLGNDETDKEKKKFLGFFKVNKRSNSKGCLTTPNSPSMHSRSLTLGPSLSLGSISGVSVKSEMKKRRAPPPPGSGPPVQDKASEKVSLGSQIDLQKKKRRAPAPPPPQPPPPSPLIPNRTEDKEENRKSTMVSLPLGSGSHCSPDGAPQVLSEAEETVSVGSCFASEDTTEDSGVMSSPSDIVSLDSQQDSMKYKDKWATDQEDCSDQDLAGTPDLGPQKSPLWEKNGSENSHLRTEKAVTASNDEEDLLIAGEFRKTLAELDEDLEEMEDSYETDTSSLTSSIHGASNHCPQDAMIPHGDTDAIPVTFIGEVSDDPVDSGLFSNRNNNAGSFDSEGVASRRDSLAPLQAEHSQPHEKAREEVPALHPASHDVGKGIRVALSNISKDGNLMETAPRVTSFASNLHTDNLNAKVKDKVYGCADGERTQATERVNSQPVNEKDSNDKNAALAPTSWHQRGQNPGKSYRLKHGLTTYKIIPPKSEMRCYDRDVSLSTGAIKIDELGNLVSPHATGIRIISLSSSVPEAESQPIGKVREFWRCNSVEKHLGRPSESSARGPPSTPVPTQTQNPESRLQADPKPISPQQKSAHHEGRNPLGEGRNQPPTMGMGHVRVPAAHTTEVTFLKPQRRTSSQYVASAIAKRIGAPKVHADVVRPHGYAEKGYAGKAPVLAAPPVTVKDDRTSSPHSETQGWKDGAQWPCVTPPNNHGEDLAVGAPPRGEVIGPHRKLSTQDRPAAIHRSSCFSLVQSSQRDRVSVGQSCGFSGKQSTSSQEASSASEPRRAPDGTDPPPPHTSDTQACSRELVNGSVRAPGHGEPSHPPGGSGTESHILLEREEKPSVFSTDGNETDSIWPPSIFGPKKKFKPVVQRPVPKDTSLHSALMEAIHSAGGKDRLRKTAEHTGEGRPAKLSYTEAEGERSALLAAIRGHSGTCSLRKVASSASEELQSFRDAALSAQGSESPLLEDLGLLSPPAIPPPPPPPSQALSAPRTASRFSTGTLSNTADARQALMDAIRSGTGAARLRKVPLLV [COBL] | -0.423 | 49.1 °C | 49.8 °C | 0.177 | 1.3 | 1.18
MDDDDFGGFEAAETFDGGSGETQTTSPAIPWAAFPAVSGVHLSPSSPEIVLDRDHSSSIGCLSSDAIISSPENTHAANSIVSQTIPKAQIQQSTHTHLDISLFPLGLTDEKSNGTIALVDDSEDPGANVSNIQLQQKISSLEIKLKVSEEEKQRIKQDVESLMEKHNVLEKGFLKEKEQEAISFQDRYKELQEKHKQELEDMRKAGHEALSIIVDEYKALLQSSVKQQVEAIEKQYISAIEKQAHKCEELLNAQHQRLLEMLDTEKELLKEKIKEALIQQSQEQKEILEKCLEEERQRNKEALVSAAKLEKEAVKDAVLKVVEEERKNLEKAHAEERELWKTEHAKDQEKVSQEIQKAIQEQRKISQETVKAAIIEEQKRSEKAVEEAVKRTRDELIEYIKEQKRLDQVIRQRSLSSLELFLSCAQKQLSALIATEPVDIE [CCDC91] | 0.348 | 53 °C | 52.1 °C | -0.0653 | -0.397 | -0.35
MDDKELIEYFKSQMKEDPDMASAVAAIRTLLEFLKRDKGETIQGLRANLTSAIETLCGVDSSVAVSSGGELFLRFISLASLEYSDYSKCKKIMIERGELFLRRISLSRNKIADLCHTFIKDGATILTHAYSRVVLRVLEAAVAAKKRFSVYVTESQPDLSGKKMAKALCHLNVPVTVVLDAAVGYIMEKADLVIVGAEGVVENGGIINKIGTNQMAVCAKAQNKPFYVVAESFKFVRLFPLNQQDVPDKFKYKADTLKVAQTGQDLKEEHPWVDYTAPSLITLLFTDLGVLTPSAVSDELIKLYL [EIF2B1] | 0.101 | 57.1 °C | 55.4 °C | -0.134 | -1.83 | -1.69
MDDLCEANGTFAISLFKILGEEDNSRNVFFSPMSISSALAMVFMGAKGSTAAQMSQALCLYKDGDIHRGFQSLLSEVNRTGTQYLLRTANRLFGEKTCDFLPDFKEYCQKFYQAELEELSFAEDTEECRKHINDWVAEKTEGKISEVLDAGTVDPLTKLVLVNAIYFKGKWNEQFDRKYTRGMLFKTNEEKKTVQMMFKEAKFKMGYADEVHTQVLELPYVEEELSMVILLPDDNTDLAVVEKALTYEKFKAWTNSEKLTKSKVQVFLPRLKLEESYDLEPFLRRLGMIDAFDEAKADFSGMSTEKNVPLSKVAHKCFVEVNEEGTEAAAATAVVRNSRCSRMEPRFCADHPFLFFIRHHKTNCILFCGRFSSP [SERPINB8] | 0.146 | 54.6 °C | 54.2 °C | -0.115 | -0.0278 | -0.739
MDDPDCDSTWEEDEEDAEDAEDEDCEDGEAAGARDADAGDEDEESEEPRAARPSSFQSRMTGSRNWRATRDMCRYRHNYPDLVERDCNGDTPNLSFYRNEIRFLPNGCFIEDILQNWTDNYDLLEDNHSYIQWLFPLREPGVNWHAKPLTLREVEVFKSSQEIQERLVRAYELMLGFYGIRLEDRGTGTVGRAQNYQKRFQNLNWRSHNNLRITRILKSLGELGLEHFQAPLVRFFLEETLVRRELPGVRQSALDYFMFAVRCRHQRRQLVHFAWEHFRPRCKFVWGPQDKLRRFKPSSLPHPLEGSRKVEEEGSPGDPDHEASTQGRTCGPEHSKGGGRVDEGPQPRSVEPQDAGPLERSQGDEAGGHGEDRPEPLSPKESKKRKLELSRREQPPTEPGPQSASEVEKIALNLEGCALSQGSLRTGTQEVGGQDPGEAVQPCRQPLGARVADKVRKRRKVDEGAGDSAAVASGGAQTLALAGSPAPSGHPKAGHSENGVEEDTEGRTGPKEGTPGSPSETPGPSPAGPAGDEPAESPSETPGPRPAGPAGDEPAESPSETPGPRPAGPAGDEPAESPSETPGPSPAGPTRDEPAESPSETPGPRPAGPAGDEPAESPSETPGPRPAGPAGDEPAESPSETPGPSPAGPTRDEPAKAGEAAELQDAEVESSAKSGKP [OGFR] | 0.423 | 48.1 °C | 49.6 °C | -0.0617 | 1.46 | 3.46
MDDQGCPRCKTTKYRNPSLKLMVNVCGHTLCESCVDLLFVRGAGNCPECGTPLRKSNFRVQLFEDPTVDKEVEIRKKVLKIYNKREEDFPSLREYNDFLEEVEEIVFNLTNNVDLDNTKKKMEIYQKENKDVIQKNKLKLTREQEELEEALEVERQENEQRRLFIQKEEQLQQILKRKNKQAFLDELESSDLPVALLLAQHKDRSTQLEMQLEKPKPVKPVTFSTGIKMGQHISLAPIHKLEEALYEYQPLQIETYGPHVPELEMLGRLGYLNHVRAASPQDLAGGYTSSLACHRALQDAFSGLFWQPS [MNAT1] | -0.181 | 52.1 °C | 53 °C | 0.565 | -0.397 | -0.426
MDDQQALNSIMQDLAVLHKASRPALSLQETRKAKSSSPKKQNDVRVKFEHRGEKRILQFPRPVKLEDLRSKAKIAFGQSMDLHYTNNELVIPLTTQDDLDKAVELLDRSIHMKSLKILLVINGSTQATNLEPLPSLEDLDNTVFGAERKKRLSIIGPTSRDRSSPPPGYIPDELHQVARNGSFTSINSEGEFIPESMDQMLDPLSLSSPENSGSGSCPSLDSPLDGESYPKSRMPRAQSYPDNHQEFSDYDNPIFEKFGKGGTYPRRYHVSYHHQEYNDGRKTFPRARRTQGTSLRSPVSFSPTDHSLSTSSGSSIFTPEYDDSRIRRRGSDIDNPTLTVMDISPPSRSPRAPTNWRLGKLLGQGAFGRVYLCYDVDTGRELAVKQVQFDPDSPETSKEVNALECEIQLLKNLLHERIVQYYGCLRDPQEKTLSIFMEYMPGGSIKDQLKAYGALTENVTRKYTRQILEGVHYLHSNMIVHRDIKGANILRDSTGNVKLGDFGASKRLQTICLSGTGMKSVTGTPYWMSPEVISGEGYGRKADIWSVACTVVEMLTEKPPWAEFEAMAAIFKIATQPTNPKLPPHVSDYTRDFLKRIFVEAKLRPSADELLRHMFVHYH [MAP3K2] | 0.0839 | 51.3 °C | 51.4 °C | -0.043 | 0.798 | 1.24
MDEEYDVIVLGTGLTECILSGIMSVNGKKVLHMDRNPYYGGESSSITPLEELYKRFQLLEGPPESMGRGRDWNVDLIPKFLMANGQLVKMLLYTEVTRYLDFKVVEGSFVYKGGKIYKVPSTETEALASNLMGMFEKRRFRKFLVFVANFDENDPKTFEGVDPQTTSMRDVYRKFDLGQDVIDFTGHALALYRTDDYLDQPCLETVNRIKLYSESLARYGKSPYLYPLYGLGELPQGFARLSAIYGGTYMLNKPVDDIIMENGKVVGVKSEGEVARCKQLICDPSYIPDRVRKAGQVIRIICILSHPIKNTNDANSCQIIIPQNQVNRKSDIYVCMISYAHNVAAQGKYIAIASTTVETTDPEKEVEPALELLEPIDQKFVAISDLYEPIDDGCESQVFCSCSYDATTHFETTCNDIKDIYKRMAGTAFDFENMKRKQNDVFGEAEQ [GDI1] | 0.0264 | 54.2 °C | 53.8 °C | -0.152 | -0.651 | -1.41
